Measured values as given in US20190127452A1.

How the values were obtained:
Experiment in all cases: cell-based or functional assay
[1] = molecular target: murine glutamine synthetase N-terminal mutant W60A N61A D63R S66A (mutGS-NT4) (murine) (UniProt P15105)
[2] = molecular target: murine glutamine synthetase N-terminal mutant W60A N61A D63A S66A D76A (mutGS-NT3) (murine) (UniProt P15105)
[3] = molecular target: murine glutamine synthetase N-terminal mutant W60A N61A D63A S66A (mutGS-NT2) (murine) (UniProt P15105)
[4] = molecular target: murine glutamine synthetase N-terminal mutant W60A N61A D63A (mutGS-NT1) (murine) (UniProt P15105)

Measured: recovery of viability of CHO-K1 GS knockout pools in glutamine-free medium

murine glutamine synthetase C-terminal mutant E134A E136A E196A E203A (mutGS-CT1) (from UniProt P15105 1-373)
90 % viability: all assays above

murine glutamine synthetase C-terminal mutant N248A H253A N255A (mutGS-CT2) (from UniProt P15105 1-373)
90 % viability: all assays above
